Experimental data from patent US9096646B2, “CXCR4 receptor compounds” (priority 2008, dated 2015).
Several values for one entry are separate records, joined by “and”; a condition that tells them apart may be missing. Equal values may be shown once. Read-outs that look alike come from different tables or passages of the source. Square brackets hold non-standard residues; d marks the D form. Ends that are not written are not given here. Peptide text beside a SMILES is read from it. * marks the point of attachment. ξ: configuration not given here. Biotin = O=C1N[C@H]2[C@H](CS[C@H]2CCCCC(=O)*)N1; ξGly(nC16H33) = CCCCCCCCCCCCCCCCC(N)C(=O)O; Palmitoyl = CCCCCCCCCCCCCCCC(=O)*; NHhexadecyl = CCCCCCCCCCCCCCCCN*

Target: CXCR4 (Homo sapiens, UniProt P61073)
Assay: Chemotaxis assay, effect on SDF1-a (CXCL12) induced migration of CCRF-CEM cells
Type: cell-based
Parameters: a human T-cell ALL line that endogenously expresses CXCR4; endogenous in cells; host or cells: CCRF-CEM (human T-cell ALL line)
Details: CEM cells; for activity at 1 µM: CCRF-CEM; for Peak Ratio: peak test compound/peak control
[1] = Table 20, i3 loop, conc 1.0 uM, read-out: AUC (% of vehicle)
[2] = Table 20, i3 loop, conc 1.0 uM, read-out: Max (% of vehicle)
[3] = Table 20, i3 loop, conc 0.01 uM
[4] = Table 20, i3 loop, conc 0.03 uM
[5] = Table 18, i1 loop, drug conc 1.0 uM
[6] = Table 18, i1 loop, drug conc 1.0 uM, read-out: AUC (% of)

CXCR4, sequence (P61073 whole entry): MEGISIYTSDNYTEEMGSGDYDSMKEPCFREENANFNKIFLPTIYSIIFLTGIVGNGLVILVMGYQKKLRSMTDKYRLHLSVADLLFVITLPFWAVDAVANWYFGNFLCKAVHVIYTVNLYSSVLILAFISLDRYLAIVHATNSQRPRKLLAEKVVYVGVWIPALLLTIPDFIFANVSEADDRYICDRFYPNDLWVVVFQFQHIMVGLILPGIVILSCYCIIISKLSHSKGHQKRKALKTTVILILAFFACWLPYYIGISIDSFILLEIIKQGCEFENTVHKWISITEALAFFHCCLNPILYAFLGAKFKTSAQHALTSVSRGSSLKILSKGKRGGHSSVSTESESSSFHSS

CCCCCCCCCCCCCCCC(=O)N[C@@H](CC(C)C)C(=O)N[C@@H](CO)C(=O)N[C@@H](Cc1cnc[nH]1)C(=O)N[C@@H](CO)C(=O)N[C@@H](CCCCN)C(=O)NCC(=O)N[C@@H](Cc1cnc[nH]1)C(=O)N[C@@H](CCC(N)=O)C(=O)N[C@@H](CCCCN)C(=O)N[C@@H](CCCNC(=N)N)C(=O)N[C@@H](CCCCN)C(=O)N[C@@H](C)C(=O)N[C@@H](CC(C)C)C(=O)N[C@@H](CCCCN)C(N)=O [Compound 95] (Palmitoyl-LSHSKGHQKRKALK-NH2)
activity at 1 µM [1]: 77.5%
activity at 1 µM [2]: 92.1%
Peak Test Compound (Table 20, i3 loop, conc 1.0 uM): 1 nM
Peak Ratio (Table 20, i3 loop, conc 1.0 uM): 1

Pal-KLSHSKGHQKRKALKTTV-amide (Palmitoyl-KLSHSKGHQKRKALKTTV-NH2; SMILES CCCCCCCCCCCCCCCC(=O)N[C@@H](CCCCN)C(=O)N[C@@H](CC(C)C)C(=O)N[C@@H](CO)C(=O)N[C@@H](Cc1c[nH]cn1)C(=O)N[C@@H](CO)C(=O)N[C@@H](CCCCN)C(=O)NCC(=O)N[C@@H](Cc1c[nH]cn1)C(=O)N[C@@H](CCC(N)=O)C(=O)N[C@@H](CCCCN)C(=O)N[C@@H](CCCNC(=N)N)C(=O)N[C@@H](CCCCN)C(=O)N[C@@H](C)C(=O)N[C@@H](CC(C)C)C(=O)N[C@@H](CCCCN)C(=O)N[C@H](C(=O)N[C@H](C(=O)N[C@H](C(N)=O)C(C)C)[C@@H](C)O)[C@@H](C)O) [Compound 90]
AUC (% of vehicle) [3]: 171.8 % of vehicle
Max (% of vehicle) [3]: 156.08 % of vehicle
Peak Test Compound [3]: 0.16 nM
AUC (% of vehicle) [4]: 217.53 % of vehicle
Max (% of vehicle) [4]: 202.16 % of vehicle
Peak Test Compound [4]: 0.16 nM
AUC (% of vehicle) (Table 20, i3 loop, conc 0.1 uM): 175.95 % of vehicle
Max (% of vehicle) (Table 20, i3 loop, conc 0.1 uM): 157.79 % of vehicle
Peak Test Compound (Table 20, i3 loop, conc 0.1 uM): 0.03 nM
AUC (% of vehicle) (Table 20, i3 loop, conc 0.3 uM): 129.83 % of vehicle
Max (% of vehicle) (Table 20, i3 loop, conc 0.3 uM): 113.68 % of vehicle
Peak Test Compound (Table 20, i3 loop, conc 0.3 uM): 0.16 nM
Max (% of vehicle) (Table 20, i3 loop, conc 1.0 uM): 131.59 % of vehicle and 76.8 % of vehicle
Peak Test Compound (Table 20, i3 loop, conc 1.0 uM): 0.16 nM
AUC (% of vehicle) (Table 20, i3 loop, conc 3.0 uM): 152.75 % of vehicle
Max (% of vehicle) (Table 20, i3 loop, conc 3.0 uM): 114.49 % of vehicle
Peak Test Compound (Table 20, i3 loop, conc 3.0 uM): 0.16 nM

89: CXCR4 i3 loop compound (KLSHSKGHQKRKALKTTVIL) [Compound 89]
AUC (% of vehicle) (Table 20, i3 loop, conc 1.0 uM): 37.55 % of vehicle
Max (% of vehicle) (Table 20, i3 loop, conc 1.0 uM): 59.71 % of vehicle

53 (MGYQKKLRSMTDKYRLHL; not fully specified) [Compound 53]
AUC (% of) [5]: 60.98 % of and 91.1 % of
Max (% of) [5]: 68.45 % of and 89.56 % of

CCCCCCCCCCCCCCCCNC(=O)[C@H](CCCCN)NC(=O)[C@H](CC(=O)O)NC(=O)[C@@H](NC(=O)[C@H](CCSC)NC(=O)[C@H](CO)NC(=O)[C@H](CCCNC(=N)N)NC(=O)[C@H](CC(C)C)NC(=O)[C@H](CCCCN)NC(=O)[C@H](CCCCN)NC(=O)[C@H](CCC(N)=O)NC(=O)[C@H](Cc1ccc(O)cc1)NC(=O)CNC(=O)[C@H](CCSC)NC(C)=O)[C@@H](C)O [Compound 59] (Ac-MGYQKKLRSMTDK-NHhexadecyl)
activity at 1 µM [6]: 51.6%

104: CXCR4 i3 loop compound (IIISKLSHSKGHQKRKALKT) [Compound 104]
AUC (% of vehicle) (Table 20, i3 loop, conc 1.0 uM): 36.4 % of vehicle
Max (% of vehicle) (Table 20, i3 loop, conc 1.0 uM): 56.39 % of vehicle

CCCCCCCCCCCCCCCCC(NC(=O)CCCC[C@@H]1SC[C@@H]2NC(=O)N[C@@H]21)C(=O)N[C@@H](Cc1cnc[nH]1)C(=O)N[C@@H](CO)C(=O)N[C@@H](CCCCN)C(=O)NCC(=O)N[C@@H](Cc1cnc[nH]1)C(=O)N[C@@H](CCC(N)=O)C(=O)N[C@@H](CCCCN)C(=O)N[C@@H](CCCNC(=N)N)C(=O)N[C@@H](CCCCN)C(=O)N[C@@H](C)C(=O)N[C@@H](CC(C)C)C(=O)N[C@@H](CCCCN)C(N)=O (stereo partly shown) [Compound 87] (Biotin-[ξGly(nC16H33)]HSKGHQKRKALK-NH2)
activity at 1 µM [1]: 52.6%
activity at 1 µM [2]: 76.1%
Peak Test Compound (Table 20, i3 loop, conc 1.0 uM): 0.2 nM
Peak Ratio (Table 20, i3 loop, conc 1.0 uM): 0.2

110: CXCR4 i4 domain compound (GAKFKTSAQHALTSVSRGSSLKILSKGKRGGHSCFH) [Compound 110]
AUC (% of vehicle) (Table 21, i4 loop, conc 1.0 uM): 40.98 % of Vehicle
Max (% of vehicle) (Table 21, i4 loop, conc 1.0 uM): 42.08 % of Vehicle

116: CXCR4 i4 domain compound (GAKFKTSAQHALTSVR) [Compound 116]
AUC (% of vehicle) (Table 21, i4 loop, conc 1.0 uM): 65.28 % of Vehicle
Max (% of vehicle) (Table 21, i4 loop, conc 1.0 uM): 80.48 % of Vehicle

CCCCCCCCCCCCCCCCC(NC(=O)CCCC[C@@H]1SC[C@@H]2NC(=O)N[C@@H]21)C(=O)N[C@@H](CCSC)C(=O)NCC(=O)N[C@@H](Cc1ccc(O)cc1)C(=O)N[C@@H](CCC(N)=O)C(=O)N[C@@H](CCCCN)C(=O)N[C@@H](CCCCN)C(=O)N[C@@H](CC(C)C)C(=O)N[C@@H](CCCNC(=N)N)C(=O)N[C@@H](CO)C(=O)N[C@@H](CCSC)C(=O)N[C@H](C(=O)N[C@@H](CC(=O)O)C(N)=O)[C@@H](C)O (stereo partly shown) [Compound 33] (Biotin-[ξGly(nC16H33)]MGYQKKLRSMTD-NH2)
activity at 1 µM [6]: 54.8%
activity at 1 µM (Table 18, i1 loop, drug conc 1.0 uM, read-out: Max (% of)): 76.1%

102: CXCR4 i3 loop compound (IIISKLSHSKGHQKRKALKT) [Compound 102]
AUC (% of vehicle) (Table 20, i3 loop, conc 1.0 uM): 0 % of vehicle
Max (% of vehicle) (Table 20, i3 loop, conc 1.0 uM): 0.24 % of vehicle

96: CXCR4 i3 loop compound (SHSKGHQKRKALK; also: lipid Pal, place not given here) [Compound 96]
AUC (% of vehicle) (Table 20, i3 loop, conc 1.0 uM): 34.22 % of vehicle
Max (% of vehicle) (Table 20, i3 loop, conc 1.0 uM): 63.12 % of vehicle

CCCCCCCCCCCCCCCC(=O)N[C@@H](CCCCN)C(=O)N[C@@H](CC(C)C)C(=O)N[C@@H](CO)C(=O)N[C@@H](Cc1cnc[nH]1)C(=O)N[C@@H](CO)C(=O)N[C@@H](CCCCN)C(=O)NCC(=O)N[C@@H](Cc1cnc[nH]1)C(=O)N[C@@H](CCC(N)=O)C(=O)N[C@@H](CCCCN)C(=O)N[C@@H](CCCNC(=N)N)C(=O)N[C@@H](CCCCN)C(=O)N[C@@H](C)C(=O)N[C@@H](CC(C)C)C(N)=O [Compound 93] (Palmitoyl-KLSHSKGHQKRKAL-NH2)
activity at 1 µM [1]: 15.9%
activity at 1 µM [2]: 54.8%
Peak Test Compound (Table 20, i3 loop, conc 1.0 uM): 0.2 nM
Peak Ratio (Table 20, i3 loop, conc 1.0 uM): 0.2

108: CXCR4 i4 domain compound (GAKFKTSAQHALTSVSRGSSLKILSKGKRG) [Compound 108]
AUC (% of vehicle) (Table 21, i4 loop, conc 1.0 uM): 89.47 % of Vehicle
Max (% of vehicle) (Table 21, i4 loop, conc 1.0 uM): 83.94 % of Vehicle
Peak Test Comp. (Table 21, i4 loop, conc 1.0 uM): 25 nM

CCCCCCCCCCCCCCCC(=O)N[C@@H](Cc1cnc[nH]1)C(=O)N[C@@H](CO)C(=O)N[C@@H](CCCCN)C(=O)NCC(=O)N[C@@H](Cc1cnc[nH]1)C(=O)N[C@@H](CCC(N)=O)C(=O)N[C@@H](CCCCN)C(=O)N[C@@H](CCCNC(=N)N)C(=O)N[C@@H](CCCCN)C(=O)N[C@@H](C)C(=O)N[C@@H](CC(C)C)C(=O)N[C@@H](CCCCN)C(=O)N[C@H](C(=O)N[C@H](C(=O)N[C@H](C(N)=O)C(C)C)[C@@H](C)O)[C@@H](C)O [Compound 99] (Palmitoyl-HSKGHQKRKALKTTV-NH2)
activity at 1 µM [1]: 45%
activity at 1 µM [2]: 64.5%
Peak Test Compound (Table 20, i3 loop, conc 1.0 uM): 0.2 nM
Peak Ratio (Table 20, i3 loop, conc 1.0 uM): 0.2

CCCCCCCCCCCCCCCC(=O)N[C@@H](Cc1cnc[nH]1)C(=O)N[C@@H](CO)C(=O)N[C@@H](CCCCN)C(=O)NCC(=O)N[C@@H](Cc1cnc[nH]1)C(=O)N[C@@H](CCC(N)=O)C(=O)N[C@@H](CCCCN)C(=O)N[C@@H](CCCNC(=N)N)C(=O)N[C@@H](CCCCN)C(=O)N[C@@H](C)C(=O)N[C@@H](CC(C)C)C(=O)N[C@@H](CCCCN)C(=O)N[C@H](C(N)=O)[C@@H](C)O [Compound 97] (Palmitoyl-HSKGHQKRKALKT-NH2)
activity at 1 µM [1]: 48.9%
activity at 1 µM [2]: 54.7%
Peak Test Compound (Table 20, i3 loop, conc 1.0 uM): 1 nM
Peak Ratio (Table 20, i3 loop, conc 1.0 uM): 0.2

CCCCCCCCCCCCCCCC(=O)N[C@@H](CCCCN)C(=O)N[C@@H](CC(C)C)C(=O)N[C@@H](CO)C(=O)N[C@@H](Cc1cnc[nH]1)C(=O)N[C@@H](CO)C(=O)N[C@@H](CCCCN)C(=O)NCC(=O)N[C@@H](Cc1cnc[nH]1)C(=O)N[C@@H](CCC(N)=O)C(=O)N[C@@H](CCCCN)C(=O)N[C@@H](CCCNC(=N)N)C(=O)N[C@@H](CCCCN)C(=O)N[C@@H](C)C(N)=O [Compound 94] (Palmitoyl-KLSHSKGHQKRKA-NH2)
activity at 1 µM [1]: 65.3%
activity at 1 µM [2]: 80.5%
Peak Test Compound (Table 20, i3 loop, conc 1.0 uM): 1 nM
Peak Ratio (Table 20, i3 loop, conc 1.0 uM): 1
